Values belong to the binder of their own block, whether it stands above or below them.
Tests used:
[1] = molecular target: T1, amphyphisin SH3 (AMPH_HUMAN), P49418; experiment: SPOT array
T1 chain: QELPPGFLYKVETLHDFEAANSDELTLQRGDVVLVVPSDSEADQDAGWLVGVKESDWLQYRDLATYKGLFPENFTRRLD

[2] = molecular target: endophilin SH3 (SH3G2_HUMAN), Q99962; experiment: SPOT array

B2: Q9BR39 363-376 (peptide)
chain: TPPQPKRPRPGVSK
normalised SPOT signal, Boehringer light units (BLU); mean over the file's lines of this peptide [1]: 343
normalised SPOT signal, Boehringer light units (BLU); mean over the file's lines of this peptide [2]: 253

B5: P35568 851-864 (peptide)
chain: TNSRLARPTRLSLG
normalised SPOT signal, Boehringer light units (BLU); mean over the file's lines of this peptide [1]: 1760
normalised SPOT signal, Boehringer light units (BLU); mean over the file's lines of this peptide [2]: 1890

B8: Q12946 14-27 (peptide)
chain: TNAGIRRPEKPPYS
normalised SPOT signal, Boehringer light units (BLU); mean over the file's lines of this peptide [1]: 70.3
normalised SPOT signal, Boehringer light units (BLU); mean over the file's lines of this peptide [2]: 113

B9: Q9BUY9 649-662 (peptide)
chain: TPRGPRRPSGPAEL
normalised SPOT signal, Boehringer light units (BLU); mean over the file's lines of this peptide [1]: 31.6
normalised SPOT signal, Boehringer light units (BLU); mean over the file's lines of this peptide [2]: 30

B10: Q9H4S4 61-74 (peptide)
chain: SELRLSRPPKAYGS
normalised SPOT signal, Boehringer light units (BLU); mean over the file's lines of this peptide [1]: 36.1
normalised SPOT signal, Boehringer light units (BLU); mean over the file's lines of this peptide [2]: 13.3

B11: Q8WX45 160-174 (peptide)
chain: TPAPPLRPPDSLSR
normalised SPOT signal, Boehringer light units (BLU); mean over the file's lines of this peptide [1]: 446
normalised SPOT signal, Boehringer light units (BLU); mean over the file's lines of this peptide [2]: 647

B14: Q9BUY9 390-404 (peptide)
chain: TPASPRRPPALRSQ
normalised SPOT signal, Boehringer light units (BLU); mean over the file's lines of this peptide [1]: 843
normalised SPOT signal, Boehringer light units (BLU); mean over the file's lines of this peptide [2]: 6640

B17: O75949 160-174 (peptide)
chain: TPAPPLRPPDSPSR
normalised SPOT signal, Boehringer light units (BLU); mean over the file's lines of this peptide [1]: 280
normalised SPOT signal, Boehringer light units (BLU); mean over the file's lines of this peptide [2]: 2060

B18: Q9BZH3 389-402 (peptide)
chain: TQPVLKRPRHVHSH
normalised SPOT signal, Boehringer light units (BLU); mean over the file's lines of this peptide [1]: 46.6
normalised SPOT signal, Boehringer light units (BLU); mean over the file's lines of this peptide [2]: 60.5

B19: Q9P2Z0 180-193 (peptide)
chain: TQISLKRPRHRSVG
normalised SPOT signal, Boehringer light units (BLU); mean over the file's lines of this peptide [1]: 6.5
normalised SPOT signal, Boehringer light units (BLU); mean over the file's lines of this peptide [2]: 27.6

B20: Q9NRA0 137-150 (peptide)
chain: TPDLLPRPPRLLLL
normalised SPOT signal, Boehringer light units (BLU); mean over the file's lines of this peptide [1]: 830
normalised SPOT signal, Boehringer light units (BLU); mean over the file's lines of this peptide [2]: 94.4

B21: Q9H0X6 10-23 (peptide)
chain: TPPLPRRPRKGSSE
normalised SPOT signal, Boehringer light units (BLU); mean over the file's lines of this peptide [1]: 2900
normalised SPOT signal, Boehringer light units (BLU); mean over the file's lines of this peptide [2]: 2360

B24: Q13424 330-343 (peptide)
chain: TREALSRPARTAPL
normalised SPOT signal, Boehringer light units (BLU); mean over the file's lines of this peptide [1]: 440
normalised SPOT signal, Boehringer light units (BLU); mean over the file's lines of this peptide [2]: 216

B25: Q9P242 471-484 (peptide)
chain: TPLSLKRPPPYDAV
normalised SPOT signal, Boehringer light units (BLU); mean over the file's lines of this peptide [1]: 19.2
normalised SPOT signal, Boehringer light units (BLU); mean over the file's lines of this peptide [2]: 67.5

B26: Q9H462 843-857 (peptide)
chain: TPPIPSKPPGGFGK
normalised SPOT signal, Boehringer light units (BLU); mean over the file's lines of this peptide [1]: 41.7
normalised SPOT signal, Boehringer light units (BLU); mean over the file's lines of this peptide [2]: 995

B27: Q9H898 117-131 (peptide)
chain: TPLSPLKPPRMDTA
normalised SPOT signal, Boehringer light units (BLU); mean over the file's lines of this peptide [1]: 334
normalised SPOT signal, Boehringer light units (BLU); mean over the file's lines of this peptide [2]: 56.4

B28: AAH28697 239-253 (peptide)
chain: TNFPPPRPPPPSRP
normalised SPOT signal, Boehringer light units (BLU); mean over the file's lines of this peptide [1]: 1610
normalised SPOT signal, Boehringer light units (BLU); mean over the file's lines of this peptide [2]: 11200

B29: Q96F98 1-15 (peptide)
chain: TRGRPTRPPTRPPT
normalised SPOT signal, Boehringer light units (BLU); mean over the file's lines of this peptide [1]: 913
normalised SPOT signal, Boehringer light units (BLU); mean over the file's lines of this peptide [2]: 8360

B31: Q9BXL6 817-830 (peptide)
chain: TLVWPHRPARPRPV
normalised SPOT signal, Boehringer light units (BLU); mean over the file's lines of this peptide [1]: 613
normalised SPOT signal, Boehringer light units (BLU); mean over the file's lines of this peptide [2]: 2240

B34: Q9H296 344-357 (peptide)
chain: TMSSIYRPLKPRTN
normalised SPOT signal, Boehringer light units (BLU); mean over the file's lines of this peptide [1]: 97.2
normalised SPOT signal, Boehringer light units (BLU); mean over the file's lines of this peptide [2]: 120

B35: P82251 399-412 (peptide)
chain: TRKELERPIKVPVV
normalised SPOT signal, Boehringer light units (BLU); mean over the file's lines of this peptide [1]: 0
normalised SPOT signal, Boehringer light units (BLU); mean over the file's lines of this peptide [2]: 324

B38: Q9H6K5 343-356 (peptide)
chain: TLQAPRRPPTPGPD
normalised SPOT signal, Boehringer light units (BLU); mean over the file's lines of this peptide [1]: 35.3
normalised SPOT signal, Boehringer light units (BLU); mean over the file's lines of this peptide [2]: 1890

B39: Q9GZM7 384-397 (peptide)
chain: TPVSLGRPERYRRH
normalised SPOT signal, Boehringer light units (BLU); mean over the file's lines of this peptide [1]: 644
normalised SPOT signal, Boehringer light units (BLU); mean over the file's lines of this peptide [2]: 398

Now from value to binder:

normalised SPOT signal, Boehringer light units (BLU); mean over the file's lines of this peptide [1]: 772
normalised SPOT signal, Boehringer light units (BLU); mean over the file's lines of this peptide [2]: 29
B1: Q14068 72-85 (peptide)
chain: TPSELERPSRMVSR

normalised SPOT signal, Boehringer light units (BLU); mean over the file's lines of this peptide [1]: 173
normalised SPOT signal, Boehringer light units (BLU); mean over the file's lines of this peptide [2]: 30.9
B3: Q9BXX2 182-195 (peptide)
chain: TPRKILRPTKETSE

normalised SPOT signal, Boehringer light units (BLU); mean over the file's lines of this peptide [1]: 78.8
normalised SPOT signal, Boehringer light units (BLU); mean over the file's lines of this peptide [2]: 1190
B4: Q05707 817-831 (peptide)
chain: TQSLPTRPPTFPPT

normalised SPOT signal, Boehringer light units (BLU); mean over the file's lines of this peptide [1]: 3020
normalised SPOT signal, Boehringer light units (BLU); mean over the file's lines of this peptide [2]: 610
B6: Q9Y6C2 143-156 (peptide)
chain: TPRPLARPARPNLS

normalised SPOT signal, Boehringer light units (BLU); mean over the file's lines of this peptide [1]: 443
normalised SPOT signal, Boehringer light units (BLU); mean over the file's lines of this peptide [2]: 192
B7: O95206 1031-1044 (peptide)
chain: TLLSPPRPGRLPDL

normalised SPOT signal, Boehringer light units (BLU); mean over the file's lines of this peptide [1]: 1320
normalised SPOT signal, Boehringer light units (BLU); mean over the file's lines of this peptide [2]: 89.5
B12: Q14333 228-241 (peptide)
chain: TRESIVRPSRRGGI

normalised SPOT signal, Boehringer light units (BLU); mean over the file's lines of this peptide [1]: 173
normalised SPOT signal, Boehringer light units (BLU); mean over the file's lines of this peptide [2]: 146
B13: Q9UPV7 127-140 (peptide)
chain: TPPAFIRPTRKLDD

normalised SPOT signal, Boehringer light units (BLU); mean over the file's lines of this peptide [1]: 4.8
normalised SPOT signal, Boehringer light units (BLU); mean over the file's lines of this peptide [2]: 68.1
B15: O14730 137-150 (peptide)
chain: TRDDPYRPAKPVPT

normalised SPOT signal, Boehringer light units (BLU); mean over the file's lines of this peptide [1]: 44.3
normalised SPOT signal, Boehringer light units (BLU); mean over the file's lines of this peptide [2]: 720
B16: Q14678 130-143 (peptide)
chain: TPGEFRRPRLASFG

normalised SPOT signal, Boehringer light units (BLU); mean over the file's lines of this peptide [1]: 46.7
normalised SPOT signal, Boehringer light units (BLU); mean over the file's lines of this peptide [2]: 2280
B22: Q16632 107-120 (peptide)
chain: TRKGPKRPQQPNPP

normalised SPOT signal, Boehringer light units (BLU); mean over the file's lines of this peptide [1]: 45.2
normalised SPOT signal, Boehringer light units (BLU); mean over the file's lines of this peptide [2]: 414
B23: P43652 501-514 (peptide)
chain: TNFAFRRPSFESLK

normalised SPOT signal, Boehringer light units (BLU); mean over the file's lines of this peptide [1]: 2330
normalised SPOT signal, Boehringer light units (BLU); mean over the file's lines of this peptide [2]: 202
B30: Q9ULT1 709-722 (peptide)
chain: TPPDPPRPKRRSHS

normalised SPOT signal, Boehringer light units (BLU); mean over the file's lines of this peptide [1]: 45.5
normalised SPOT signal, Boehringer light units (BLU); mean over the file's lines of this peptide [2]: 65.5
B32: Q9BZW3 294-307 (peptide)
chain: SEVPLKRPRLDKNS

normalised SPOT signal, Boehringer light units (BLU); mean over the file's lines of this peptide [1]: 39.3
normalised SPOT signal, Boehringer light units (BLU); mean over the file's lines of this peptide [2]: 904
B33: Q9HD71 354-368 (peptide)
chain: TPTVPLKPPPPLTL

normalised SPOT signal, Boehringer light units (BLU); mean over the file's lines of this peptide [1]: 62.6
normalised SPOT signal, Boehringer light units (BLU); mean over the file's lines of this peptide [2]: 48.1
B36: Q8WV92 138-151 (peptide)
chain: SEMLIKRPSKVKTI

normalised SPOT signal, Boehringer light units (BLU); mean over the file's lines of this peptide [1]: 94
normalised SPOT signal, Boehringer light units (BLU); mean over the file's lines of this peptide [2]: 59.1
B37: P42331 33-46 (peptide)
chain: TPNPLERPIKMGWL

normalised SPOT signal, Boehringer light units (BLU); mean over the file's lines of this peptide [1]: 33.3
normalised SPOT signal, Boehringer light units (BLU); mean over the file's lines of this peptide [2]: 19.4
B40: O75598 106-119 (peptide)
chain: SEHNPKRPVTSEQG

normalised SPOT signal, Boehringer light units (BLU); mean over the file's lines of this peptide [1]: 34.7
normalised SPOT signal, Boehringer light units (BLU); mean over the file's lines of this peptide [2]: 41.2
B41: Q9Y6Y1 1215-1228 (peptide)
chain: TNPELRRPRSEPSN

normalised SPOT signal, Boehringer light units (BLU); mean over the file's lines of this peptide [1]: 381
normalised SPOT signal, Boehringer light units (BLU); mean over the file's lines of this peptide [2]: 8220
B42: Q9NWH1 363-376 (peptide)
chain: TPKPPKRPRLQRPA

Reference: article PMC314469, “Protein Interaction Networks by Proteome Peptide Scanning” (PLoS Biology, 2004)
